Data published in patent publication US20260042836A1.
Positions count from the first letter of the chain named. In names and notes the source's numbering stands. Blank lines part the entries; values can stand above or below the binder they belong to.

Legend:
[1] = biological target: Butyrophilin Subfamily 2 Member A1 (BTN2A1) (human) (UniProt Q7KYR7); test: cell-based or functional assay
[2] = biological target: BTN2A1; BTN3A1; BTN3A2/A3 peptide on (human); test: luciferase killing assay, 20 h; T cells + three luciferase tumour cell lines (10:1) + purified GAB + 30 µM pamidronate; fusion: anti-CD3 scFv (GAB)
BTN3A1/A2/A3 = test: cell-based or functional assay
[3] = biological target: BTN2A1; BTN3A1; BTN3A2/A3 peptide on (human); test: luciferase killing assay, 20 h; T cells + luciferase target cells (5:1) + purified GAB + 30 µM pamidronate; fusion: anti-CD3 scFv (GAB)

Chain of UniProt Q7KYR7 (Q7KYR7 29-527): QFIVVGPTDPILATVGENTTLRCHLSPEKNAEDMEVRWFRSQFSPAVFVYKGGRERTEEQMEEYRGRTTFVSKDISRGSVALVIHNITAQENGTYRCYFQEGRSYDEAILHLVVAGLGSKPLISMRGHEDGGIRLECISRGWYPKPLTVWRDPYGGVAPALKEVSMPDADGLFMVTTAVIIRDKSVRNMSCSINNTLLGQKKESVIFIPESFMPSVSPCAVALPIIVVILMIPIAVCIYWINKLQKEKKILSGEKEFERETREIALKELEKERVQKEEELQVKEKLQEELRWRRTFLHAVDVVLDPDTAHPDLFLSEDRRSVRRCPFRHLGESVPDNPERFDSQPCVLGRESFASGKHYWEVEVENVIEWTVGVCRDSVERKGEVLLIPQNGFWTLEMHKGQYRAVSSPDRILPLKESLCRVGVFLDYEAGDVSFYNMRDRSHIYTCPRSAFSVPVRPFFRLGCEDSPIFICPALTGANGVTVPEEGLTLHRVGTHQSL

B1: Vγ9Vδ2TCR MNP2γE22W (TCR, part only; not given: rest of gamma chain, delta chain, part only)
TCR gamma, part: AGHLEQPQISSTKTLSKTARLWCVVSGITISATSVYWYRERPGEVIQFLVSISYDGTVRKESGIPSGKFEVDRIPETSTSTLTIHNVEKQDIATYYCALWE
killing of luciferase transduced RPMI8226 cells by TCR-transduced αβT cells (MNP2 wt killed around 60%) [1]: > 90%

B3: GAB-AJ8sδK53S (TCR, part only; not given: CDR3 delta, constant parts, anti-CD3 scFv, part only)
TCR gamma, part: B1 TCR gamma, part with W22E, R73Y
TCR delta, part: AIELVPEHQTVPVSIGVPATLRCSMKGEAIGNYYINWYRKTQGNTMTFIYRESDIYGPGFKDNFQGDIDIAKNLAVLKILAPSERDEGSYYCACDT
IFNγ release after 20 hours of coculture, potency against GAB-AJ8s (BTN3A1/A2/A3): 10 fold

B4: GAB-AJ8sγT81W (TCR, part only; not given: CDR3 delta, constant parts, anti-CD3 scFv, part only)
TCR gamma, part: B1 TCR gamma, part with W22E, R73Y, T81W
TCR delta, part: B3 TCR delta, part with S53K
IFNγ production relative to GAB-AJ8s (GAB expression media, MZ1851RC, 30 µM pamidronate) [1]: 2 fold
fold difference in EC50 of tumor cell killing against GAB-AJ8s [1]: 2.8 fold
mean fold difference in EC50 of GAB against GAB-AJ8s [3]: 2.8 fold

B5: GAB-AJ8sγT81H (TCR, part only; not given: CDR3 delta, constant parts, anti-CD3 scFv, part only)
TCR gamma, part: B1 TCR gamma, part with R73Y
TCR delta, part: B3 TCR delta, part with S53K
IFNγ production relative to GAB-AJ8s (GAB expression media, MZ1851RC, 30 µM pamidronate) [1]: 4.2 fold
fold difference in EC50 of tumor cell killing against GAB-AJ8s [1]: 2.4 fold
mean fold difference in EC50 of GAB against GAB-AJ8s [3]: 2.4 fold

B6: GAB-AJ8s-Vγ9 mutation T83L (TCR, part only; not given: CDR3 delta, constant parts, anti-CD3 scFv, part only)
TCR gamma, part: B1 TCR gamma, part with W22E, R73Y, T83L
TCR delta, part: B3 TCR delta, part with S53K
IFNγ production relative to GAB-AJ8s (GAB expression media, MZ1851RC, 30 µM pamidronate) [1]: 2 fold

B7: GAB-AJ8sγE22WδK53S (TCR, part only; not given: CDR3 delta, constant parts, anti-CD3 scFv, part only)
TCR gamma, part: B1 TCR gamma, part with R73Y
TCR delta, part: B3 TCR delta, part
IFNγ release, potency against the single mutants (combined Vγ9 and Vδ2 mutations; RPMI8226 and SCC9) (BTN3A1/A2/A3): 10 fold
T cell mediated killing of RPMI8226 and SCC9, potency against GAB-AJ8s (BTN3A1/A2/A3): > 100 fold
T cell mediated killing of RPMI8226 and SCC9, potency against the single Vγ9 or Vδ2 mutants (BTN3A1/A2/A3): > 10 fold
IFNγ release, potency against the single mutants (combined Vγ9 and Vδ2 mutations; RPMI8226 and SCC9) [1]: 10 fold
T cell mediated killing of RPMI8226 and SCC9, potency against GAB-AJ8s [1]: > 100 fold
T cell mediated killing of RPMI8226 and SCC9, potency against the single Vγ9 or Vδ2 mutants [1]: > 10 fold

B8: GAB-AJ8s-Vγ9 mutation T81I (TCR, part only; not given: CDR3 delta, constant parts, anti-CD3 scFv, part only)
TCR gamma, part: B1 TCR gamma, part with W22E, R73Y, T81I
TCR delta, part: B3 TCR delta, part with S53K
IFNγ production relative to GAB-AJ8s (GAB expression media, MZ1851RC, 30 µM pamidronate) [1]: 2 fold

Now from value to binder, other results behind:

IFNγ release after 20 hours of coculture, potency against GAB-AJ8s [1]: 10 fold
IFNγ release relative to GAB-AJ8s (GAB expression media, T cells with MZ1851RC or SCC9, 30 µM pamidronate) [1]: 5.6 fold
B2: GAB-AJ8sγE22W (TCR, part only; not given: CDR3 delta, constant parts, anti-CD3 scFv, part only)
TCR gamma, part: B1 TCR gamma, part with R73Y
TCR delta, part: B3 TCR delta, part with S53K
T cell mediated tumor cell killing (luciferase), activity against GAB-AJ8s [1]: > 10 fold
fold difference in EC50 of tumor cell killing between GAB-AJ8s and GAB-AJ8γE22W [1]: 15.5 fold
mean fold difference in EC50 of GAB against GAB-AJ8s [2]: 15.5 fold

IFNγ release after 20 hours of coculture, potency against GAB-AJ8s (BTN3A1/A2/A3): 10 fold
B9: GAB-AJ8sδG31V (TCR, part only; not given: CDR3 delta, constant parts, anti-CD3 scFv, part only)
TCR gamma, part: B1 TCR gamma, part with W22E, R73Y
TCR delta, part: B3 TCR delta, part with G31V, S53K

IFNγ release, potency against the single mutants (combined Vγ9 and Vδ2 mutations; RPMI8226 and SCC9) (BTN3A1/A2/A3): 10 fold
IFNγ release, potency against the single mutants (combined Vγ9 and Vδ2 mutations; RPMI8226 and SCC9) [1]: 10 fold
B10: GAB-AJ8sγE22WδG31V (TCR, part only; not given: CDR3 delta, constant parts, anti-CD3 scFv, part only)
TCR gamma, part: B1 TCR gamma, part with R73Y
TCR delta, part: B3 TCR delta, part with G31V, S53K
T cell mediated killing of RPMI8226 and SCC9, potency against GAB-AJ8s (BTN3A1/A2/A3): > 100 fold
T cell mediated killing of RPMI8226 and SCC9, potency against the single Vγ9 or Vδ2 mutants (BTN3A1/A2/A3): > 10 fold
T cell mediated killing of RPMI8226 and SCC9, potency against GAB-AJ8s [1]: > 100 fold
T cell mediated killing of RPMI8226 and SCC9, potency against the single Vγ9 or Vδ2 mutants [1]: > 10 fold

IFNγ production relative to GAB-AJ8s (GAB expression media, MZ1851RC, 30 µM pamidronate) [1]: 8.8 fold
B11: GAB-AJ8sγT83I (TCR, part only; not given: CDR3 delta, constant parts, anti-CD3 scFv, part only)
TCR gamma, part: B1 TCR gamma, part with W22E, R73Y, T83I
TCR delta, part: B3 TCR delta, part with S53K
